In paper PMC5702849, “A Novel Halotolerant Thermoalkaliphilic Esterase from Marine Bacterium Erythrobacter seohaensis SW-135” (Frontiers in Microbiology, 2017) one finds Km data, which are given here for one protein.

Substrate in the data set: CCCC(=O)Oc1ccc([N+](=O)[O-])cc1
The data set can be described thus: purified protein. The class given is biochemical, Qipengyuania seohaensis. As to conditions: standard assay: 50 mM CHES pH 10.0, 40 °C, 0.05-4.0 mM substrate.

B1: E69 (Qipengyuania seohaensis) (protein)
chain: MRDHGERFVVEAEERRTVSIERTNLGGVNIAWVSPSDKVPSSDGPLIFNLHDGGFALNDGDAALYTAVSFAELQQLDSVSVDYRLTPQHPYPAALEDAVAAYAVIKRKMPGRPIVVYGLSAGGGLGAAFLLKVKQLGLPMPEAAVLNSPWSDVSMNSDTLATLDCYDPLLGGSRPTLKPLANSYAAGADPQDPLVSPVYGDWEGVDVPVLLISGTRDVMLGDTVRLHRAMWRAGVPAELIVNEGMWHAFSVEPEFEAMIADSARFIRHISAKED
notes: expressed in E. coli BL21 (DE3) from pSMT3 as N-terminal His6-SUMO fusion, tag cleaved with ULP1 and removed; about 30 kDa on SDS-PAGE
Regarding B1, the Km is 2200 ± 300 µM.

The term Km denotes the concentration of substrate that gives half-maximal velocity.
